# From the nanobody polyreactivity screen of Harvey et al. (2022)
# Test: yeast display, Sf9 membrane polyspecificity reagent, FACS + sequencing; frameworks hold sequencing errors
# Outline: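 A synthetic nanobody library was expressed on Saccharomyces cerevisiae BJ5465 by galactose induction for 36–48 hours. The library was stained for 1 hour at 4 °C with 10% biotinylated, detergent-solubilized Sf9 membrane reagent and enriched with streptavidin microbeads before FACS. Low and high (top ~1%) gates were set on anti-HA fluorescence for expression and streptavidin fluorescence for reagent binding, and each polyreactivity label reflects the gate of origin.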
row,Sequence,polyreactivity (PSR sort gate)
1,QVQLVESGGGLVQAGGSLRLSCAASGFTFRYNAMGWYRQAPGKERELVAAISSRGGSTYYADSVKGRFTISRDNAKNTVYLQMNSLKPEDTAVYYCALYGGLGDRFRPRYYWGQGTQVTVSS,high polyreactivity
2,QVQLVESGGGLVQAGGSLRLSCAASGFTFRYNAMGWYRQAPGKERELVATISWRGTSTYYADSVKGRFTISRDNAKNTVYLQMNSLKPEDTAVYYCATRSRDQYSVSYRLDYWGQGTQVTVSS,low polyreactivity
3,QVQLVESGGGLVQAGGSLRLSCAASGFTFRYNAMGWYRQAPGKKGSWVAAISRTGGSTYYADSVKGRFTISRDNAKNTVYLQMNSLKPEDTAVYYCARAPEGTGGKYGYWGQGTQVTVSS,high polyreactivity
4,QVQLVESGGGLVQAGGSLRLSCAASGFTFRYYAMGWYRPAPGKERELVAAISWSGGSTYYADSVKGRFTISRDNAKNTVYLQMYTLIPEDTAVYDCNAAWPGYISNRLGYDYWGQGTQVTVSS,high polyreactivity
5,QVQLVESGGGLVQAGGSLRLSCAASGFTFRYYAMGWYRQAPGKEREFVAAIRSSGTTTSYADSVKGRFTISRDNAKNTVYLHMHSLKPEDTAVYYCAAGYFGPQQYYYWGQGTQVTVSS,high polyreactivity
6,QVQLVESGGGLVQAGGSLRLSCAASGFTFRYYAMGWYRQAPGKEREFVAAISRGGGTTYYADSVKGRFTISRDNAKNTVYLQMNSLKPEDTAVYYCATRALYWRYGYDYWGQGTQVTVSS,high polyreactivity
7,QVQLVESGGGLVQAGGSLRLSCAASGFTFRYYAMGWYRQAPGKERELVAAINYSGGSTFYADSVKGRFTISRDNAKNTVYLQMNSLKPEDTAVYYCAATRLTPYIYGGKYNYWGQGTQVTVSS,high polyreactivity
8,QVQLVESGGGLVQAGGSLRLSCAASGFTFRYYAMGWYRQAPGKERELVAAITGSGVNTYYADSVKGRFTISRDNAKNTVYLQMNSLKPEDTAVYYCAAESESDPLFERYYWGQGTQVTVSS,high polyreactivity
9,QVQLVESGGGLVQAGGSLRLSCAASGFTFRYYAMGWYRQAPGKERELVAAITNVGSTNYADSVKGRFTMSRDNAKHTVYLQMNSLKPEDTAVYYCNARDYYSYDYWGQGTQVTVST,high polyreactivity
10,QVQLVESGGGLVQAGGSLRLSCAASGFTFRYYAMGWYRQAPGKERELVAAITSGDSTYYADSVKGRFTISRDNAKNTVYLQMNSLKPEDTAVYYCAAYYYGYDYWGQGTQVTVSS,high polyreactivity
11,QVQLVESGGGLVQAGGSLRLSCAASGFTFRYYAMGWYRQAPGKERELVAAITSGGGSTYYADSVKGRFTISRDNAKNTVYLQMNSLKPEDTAVYYCATKRARYSYDYWGQGTQVTVSS,high polyreactivity
12,QVQLVESGGGLVQAGGSLRLSCAASGFTFRYYAMGWYRQAPGKERELVAAITSRGGNTYYADSVKGRFTISRDNAKNTVYLQMNSLKPEDTAVYYCAARYSTTMDYWGQGTQVTVSS,high polyreactivity
13,QVQLVESGGGLVQAGGSLRLSCAASGFTFRYYAMGWYRQAPGKERELVAAITWSGGRTYYADSVKGRFTISRDNAKNTVYLQMNSLKPEDTAVYYCNTPSLWSGEDYWGQGTQVTVSS,high polyreactivity
14,QVQLVESGGGLVQAGGSLRLSCAASGFTFRYYAMGWYRQAPGKERELVAGISRGGSTYYADSVKGRFTISRDNAKNSVYLQMNSLKPEDTAVYYCAARSYARKSYEMGYWGQGTQVTVSS,high polyreactivity
15,QVQLVESGGGLVQAGGSLRLSCAASGFTFRYYAMGWYRQAPGKERELVAGISWSGSRTYYADSVKGRFTISRDNAKNTVYLQMNSLKPEDTAVYYCAKVNSYGPVPDRYDYWGQGTQVTVSS,high polyreactivity
16,QVQLVESGGGLVQAGGSLRLSCAASGFTFRYYAMGWYRQAPGKERELVARISSRGGSTNYADSVKGRFTISRDNAKNTVYLQMNSLKAEDTAVYFCAAASWNSNRHYYVARYYYWGQGTQVTVSS,high polyreactivity
17,QVQLVESGGGLVQAGGSLRLSCAASGFTFRYYAMGWYRQAPGKERELVASINWSGGSTYYADSVKGRFTISRDNAKNTVYFQMNSLKPEDTAVYYCAADSIWGHYFARFDYWVQGTQVTVSS,high polyreactivity
18,QVQLVESGGGLVQAGGSLRLSCAASGFTFRYYAMGWYRQAPGKERELVASISRSGSTNYADSVKGRFTISRDNAKNTVYLQMNSLKPEDTAVYYCAAQLYSRGGYWGQGTQVTVSS,high polyreactivity
19,QVQLVESGGGLVQAGGSLRLSCAASGFTFRYYAMGWYRQAPGQERELVAAITRGAGSTYYADSVKGRFTISRDNAKNTDYFQMNSLKPEDTAVYYCAAEFFQYYVATPFDPSNYWGQGTQVTVSS,low polyreactivity
20,QVQLVESGGGLVQAGGSLRLSCAASGFTFRYYAMGWYRQEPGKERELVAAISRSDSRTYADSVKGRFTISRDNAMNTVYIQMNSLNPEDTAVYYCNARYGYSSYVFIFDYWGQGTQVTVSS,high polyreactivity
21,QVQLVESGGGLVQAGGSLRLSCAASGFTFRYYTMGWYRQAPGKERELVARITTGGSTYYADPVKGRFTISRDNAKKTVYLQMNSLKPEDTAVYFCAARLSRWWPPTGVHYTDRYYWGQGTQVTVSS,high polyreactivity
22,QVQLVESGGGLVQAGGSLRLSCAASGFTFRYYTMGWYRQAPGKERELVASITWRGGSTYYADSVKARFTISRDNAKNTVYLQMNSMKPEDTAVYYCNAERPYQYYPGIYRWYYYWGQGTQVTVSS,low polyreactivity

row,Sequence,polyreactivity (PSR sort gate)
1,QVQLVESGGGLVQAGGSLRLSCAASGFTFRYYVMGWYRQAPGIERELVAAISWSGGSTYYADSVKGRFTISRDNAKYTVYLQMNSLNPEDTAVYYCNAASLSKSDYWGQGTQVTVSS,high polyreactivity
2,QVQLVESGGGLVQAGGSLRLSCAASGFTFRYYVMGWYRQAPGKERELVARISTGASTHYADSVKGRFTISRDNAKNSVYLQKNSLKPEDTAVYYCASDHPAFGPGYSFDYWGLGTQVTVSS,low polyreactivity
3,QVQLVESGGGLVQAGGSLRLSCAASGFTFSAYAMGWSRQAPGKERELVAAITLRGGSTYYADSVKGRFTISRDNAKNTVYLQMNSLKPEDTAVYYCAADRIYVAYDYWGQGTQVTVSS,low polyreactivity
4,QVQLVESGGGLVQAGGSLRLSCAASGFTFSEYAMGWYRQAPGKERELVAAISQRGGSTYYADSVKGRFTISRDNAKNTVYLQMNSLKPEDTAVYYCAADSARYYGAKRFGYWGQGTQVTVSS,high polyreactivity
5,QVQLVESGGGLVQAGGSLRLSCAASGFTFSEYAMGWYRQAPGKERELVAAISRGTSTYYADSVKGRFTISRDNAKNTVYLQMNSVKPEDTAVYYCAAAPSYYPARHGYWGQVTQVTVSS,low polyreactivity
6,QVQLVESGGGLVQAGGSLRLSCAASGFTFSFYAMGCDRQAPGKERELVATISSGGSTTYADSVKGRFTISRDNANNTVYLHMNSLKPEDTAVYYCAARYGRVRNYRYDYWGKGTQVTVSS,high polyreactivity
7,QVQLVESGGGLVQAGGSLRLSCAASGFTFSFYAMGWYRQAPGKERELVAPISYSGGITYYADSVKGRFTISRENWKNTVYLQMNSLKPEDTAVYYCAAVPYYSKGSSHYNSGNNYCGQGTQVTVSS,low polyreactivity
8,QVQLVESGGGLVQAGGSLRLSCAASGFTFSFYSMGWYRQAPGKERELVASISDSDGITFYADSVKGSFTISRDNAKNTVYLQMNSLKPEDTAVYYCAADVAIAIPFSYDYWGQGTQVTVSS,low polyreactivity
9,QVQLVESGGGLVQAGGSLRLSCAASGFTFSGYAMGWYRQAPGKERELVAAISTSGGNTYYADSVKGRFTISRDNAKNTVYLQMNSLKPEDTAVYYCAADDWPWGDAGVDYWGQGTLVTVSS,low polyreactivity
10,QVQLVESGGGLVQAGGSLRLSCAASGFTFSHNAMGWYRQAPGKERELVAAISGSGGRTYYADSVKGRFTISRDNAKNTVYLQMNSLKPEDTAVYYCNAGRWWRRGYGYWGQGTQVTVSS,high polyreactivity
11,QVQLVESGGGLVQAGGSLRLSCAASGFTFSINTMGWYRQAPGKERQFVAGISRSGGSTYYADSVKWRFTISRDNAKNTVYLQMNSLKPEDTAVYYCAAGGPYWSRYEYWGQGNQVTVSS,high polyreactivity
12,QVQLVESGGGLVQAGGSLRLSCAASGFTFSLYAMGWYRQAPGKEREMVAAISRIGGRTYYADSVKGRFTISRDNAKNTVYLQMNSLKPEDTAVYYCAARQGYRSYRRYDYWGQGTQVTVSS,high polyreactivity
13,QVQLVESGGGLVQAGGSLRLSCAASGFTFSNYAMGWYRQAPGKERELVAAISFRTGRTYYADSVKGRFTISRDNAKNTVYLQMNSLKPEDTAVYYCAAVVQSSEPVEYDYWGQGTQVTVSS,high polyreactivity
14,QVQLVESGGGLVQAGGSLRLSCAASGFTFSPNAMGWDRQAPGKERELVATISWNGGRTHYADSVKGRFTISRDNANKTVYLQMNSLKPEDTAVYYCNVVRATGRYYYWGQGTQVTVSS,high polyreactivity
15,QVQLVESGGGLVQAGGSLRLSCAASGFTFSQYAMGWYRQAPGKERELVAAISRSGGSTYYADSVKGRFTISRDNAKNTVYLQMNSLKPEDTAVYYCAARGPVGYGWRYRPWHDYWGQGTQVTVSS,high polyreactivity
16,QVQLVESGGGLVQAGGSLRLSCAASGFTFSRNAMGWYRQAPGKERELVAAISQSGGSTYYADSVKGRFTISRDNAKNTVYLQMNSRKPEDTAVYYCAATGWIIIKPTSSLKFNYWGQGTQVTVSS,high polyreactivity
17,QVQLVESGGGLVQAGGSLRLSCAASGFTFSRNAMGWYRQAPGKERELVAAITWSGGRTYYADSVKGRFTLSRDNAKNTVYLQMNSLKPEDTAVYYCAARKYHLRSAYDYWGHGTQVTVSS,low polyreactivity
18,QVQLVESGGGLVQAGGSLRLSCAASGFTFSRNTMGWYRQAPGKEREFVAGIRRSGSSTYYADSVKGRFTISRDNAKNTVYLQMNSLKPEDTAVYYCARVNGAKQGGEYDYWGQGTQVTVSS,high polyreactivity
19,QVQLVESGGGLVQAGGSLRLSCAASGFTFSRNTMGWYRQAPGKERELVARISASGGSTYYADSVKGRFTISRDNAKNTVYLQMNSLKPEDTAVYYCAAVYRRYGGSRYDYWGQGTQVTVSS,high polyreactivity
20,QVQLVESGGGLVQAGGSLRLSCAASGFTFSRNTMGWYSQAPGKERELVARISASGGSTYFADSVKGRITISRDNAKNTVYLQMTSLKQEATAVYYCAAVYRRYGGSRYDYWGQGTQVTVSS,high polyreactivity
21,QVQLVESGGGLVQAGGSLRLSCAASGFTFSRNTMGWYSQAPGKERELVARISASGGSTYYADSVKGRITISRDNAKNTVYLQMNSLKPEATAVYYCAAVYRRYGGSRYDYWGQGTQVTVSS,high polyreactivity
